Reference: PMC9482650, “Quantitative fragmentomics allow affinity mapping of interactomes” (Nature Communications, 2022)

T1: SNTG2, Q9NY99
T1 sequence (Q9NY99 68-166, limits assumed, looked up): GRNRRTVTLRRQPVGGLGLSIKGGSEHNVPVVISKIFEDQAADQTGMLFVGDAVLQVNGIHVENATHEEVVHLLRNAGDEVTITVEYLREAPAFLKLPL

T2: LRRC7, Q96NW7
T2 sequence (Q96NW7 1440-1537, limits assumed, looked up): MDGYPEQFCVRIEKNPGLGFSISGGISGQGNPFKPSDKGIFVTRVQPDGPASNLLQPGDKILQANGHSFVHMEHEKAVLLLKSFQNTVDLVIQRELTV

T3: MPP6, Q9NZW5
T3 sequence (Q9NZW5 125-219, limits assumed, looked up): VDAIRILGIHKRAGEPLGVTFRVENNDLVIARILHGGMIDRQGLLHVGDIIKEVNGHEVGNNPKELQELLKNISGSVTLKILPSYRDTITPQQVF

T4: SNTG1, Q9NSN8
T4 sequence (Q9NSN8 52-150, limits assumed, looked up): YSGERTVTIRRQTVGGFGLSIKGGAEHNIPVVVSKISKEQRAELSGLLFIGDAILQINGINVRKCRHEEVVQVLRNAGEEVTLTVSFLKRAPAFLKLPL

T5: CARD11, Q9BXL7
T5 sequence (Q9BXL7 662-765, limits assumed, looked up): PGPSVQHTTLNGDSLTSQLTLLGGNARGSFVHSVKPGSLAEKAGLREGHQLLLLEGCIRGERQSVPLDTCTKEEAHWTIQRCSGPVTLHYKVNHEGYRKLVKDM

T6: NHERF3_1, Q5T2W1
T6 sequence (Q5T2W1 4-100, limits assumed, looked up): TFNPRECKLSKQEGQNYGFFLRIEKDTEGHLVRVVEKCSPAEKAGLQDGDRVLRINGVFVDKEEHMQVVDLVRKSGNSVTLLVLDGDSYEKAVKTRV

T7: PARD3B_1, Q8TEW8
T7 sequence (Q8TEW8 196-299, limits assumed, looked up): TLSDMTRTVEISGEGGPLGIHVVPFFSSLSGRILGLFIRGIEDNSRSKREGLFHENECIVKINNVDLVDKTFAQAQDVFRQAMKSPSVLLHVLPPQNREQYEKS

T8: APBA1_2, Q02410
T8 sequence (Q02410 742-832, limits assumed, looked up): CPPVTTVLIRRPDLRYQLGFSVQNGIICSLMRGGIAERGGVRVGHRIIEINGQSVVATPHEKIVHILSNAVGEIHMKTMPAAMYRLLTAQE

T9: NHERF3_3, Q5T2W1
T9 sequence (Q5T2W1 238-333, limits assumed, looked up): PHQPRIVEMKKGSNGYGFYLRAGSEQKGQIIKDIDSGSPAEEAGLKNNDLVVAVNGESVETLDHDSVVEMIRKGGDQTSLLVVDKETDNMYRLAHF


Key:
Assay in all cases: holdup assay
Parameters in all cases: key: below the threshold = too weak to quantify, mostly under pKd 3.1 to 4
Details in all cases: plain residues with an end cap or a label only (N-terminal biotin on a linker: ado-ado)
[1] = molecular target: T1, SNTG2, Q9NY99
[2] = molecular target: LIMK2, P53671
[3] = molecular target: DLG2_2, Q15700
[4] = molecular target: PTPN3, P26045
[5] = molecular target: T2, LRRC7, Q96NW7
[6] = molecular target: T3, MPP6, Q9NZW5
[7] = molecular target: GRASP, Q7Z6J2
[8] = molecular target: GRIP2_6, Q9C0E4
[9] = molecular target: LNX1_1, Q8TBB1
[10] = molecular target: T4, SNTG1, Q9NSN8
[11] = molecular target: LDB3, O75112
[12] = molecular target: PICK1, Q9NRD5
[13] = molecular target: T5, CARD11, Q9BXL7
[14] = molecular target: T6, NHERF3_1, Q5T2W1
[15] = molecular target: T7, PARD3B_1, Q8TEW8
[16] = molecular target: IL16_1, Q14005
[17] = molecular target: T8, APBA1_2, Q02410
[18] = molecular target: Inadl_3, Q8NI35
[19] = molecular target: AHNAK1, Q09666
[20] = molecular target: DLG1_3, Q12959
[21] = molecular target: DLG5_1, Q8TDM6
[22] = molecular target: MAGI2_3, Q86UL8
[23] = molecular target: IL16_4, Q14005
[24] = molecular target: T9, NHERF3_3, Q5T2W1
[25] = molecular target: SCRIB_1, Q14160
[26] = molecular target: SCRIB_3, Q14160
[27] = molecular target: TJP1_3, Q07157
[28] = molecular target: NHERF4_4, Q86UT5
Chain of NHERF4_4, Q86UT5 (Q86UT5 464-550): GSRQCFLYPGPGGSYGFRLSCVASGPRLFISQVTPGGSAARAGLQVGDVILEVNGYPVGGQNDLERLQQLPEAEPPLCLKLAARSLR

Chain of PICK1, Q9NRD5 (Q9NRD5 17-115): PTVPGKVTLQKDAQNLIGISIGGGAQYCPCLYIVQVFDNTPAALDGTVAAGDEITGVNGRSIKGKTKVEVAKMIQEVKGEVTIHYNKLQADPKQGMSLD
Chain of DLG2_2, Q15700 (Q15700 189-283): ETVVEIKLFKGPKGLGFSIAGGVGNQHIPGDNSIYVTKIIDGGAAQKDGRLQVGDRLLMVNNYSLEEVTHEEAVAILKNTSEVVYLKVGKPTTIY
Chain of LIMK2, P53671 (P53671 143-248): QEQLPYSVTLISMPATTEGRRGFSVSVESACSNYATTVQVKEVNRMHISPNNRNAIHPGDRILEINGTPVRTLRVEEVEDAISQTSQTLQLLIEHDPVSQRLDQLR
Chain of DLG5_1, Q8TDM6 (Q8TDM6 617-713): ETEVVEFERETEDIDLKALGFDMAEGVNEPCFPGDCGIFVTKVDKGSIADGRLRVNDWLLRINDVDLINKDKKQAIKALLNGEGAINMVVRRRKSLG
Chain of TJP1_3, Q07157 (Q07157 416-512): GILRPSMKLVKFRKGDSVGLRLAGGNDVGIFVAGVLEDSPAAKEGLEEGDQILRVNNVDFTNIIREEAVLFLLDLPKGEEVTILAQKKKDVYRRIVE
Chain of GRIP2_6, Q9C0E4 (Q9C0E4 648-740): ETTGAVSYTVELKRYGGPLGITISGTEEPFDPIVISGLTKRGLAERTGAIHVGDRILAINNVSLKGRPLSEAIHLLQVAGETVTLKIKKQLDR
Chain of Inadl_3, Q8NI35 (Q8NI35 359-469): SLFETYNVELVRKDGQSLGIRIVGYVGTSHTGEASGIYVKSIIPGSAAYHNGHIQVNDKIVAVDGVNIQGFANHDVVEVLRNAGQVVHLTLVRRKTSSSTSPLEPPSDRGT
Chain of SCRIB_1, Q14160 (Q14160 718-814): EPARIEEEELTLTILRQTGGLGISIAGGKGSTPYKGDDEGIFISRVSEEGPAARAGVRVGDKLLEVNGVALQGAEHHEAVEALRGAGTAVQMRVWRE
Chain of GRASP, Q7Z6J2 (Q7Z6J2 96-193): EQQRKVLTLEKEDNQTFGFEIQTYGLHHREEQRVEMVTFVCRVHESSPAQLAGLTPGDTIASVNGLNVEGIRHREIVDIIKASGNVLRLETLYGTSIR
Chain of DLG1_3, Q12959 (Q12959 457-571): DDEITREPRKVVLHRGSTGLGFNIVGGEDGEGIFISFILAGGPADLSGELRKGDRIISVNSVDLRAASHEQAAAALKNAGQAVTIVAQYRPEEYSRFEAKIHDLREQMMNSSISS
Chain of AHNAK1, Q09666 (Q09666 4-100): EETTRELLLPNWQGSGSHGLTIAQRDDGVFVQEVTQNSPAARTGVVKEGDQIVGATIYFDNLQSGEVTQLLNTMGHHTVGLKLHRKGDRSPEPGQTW
Chain of IL16_1, Q14005 (Q14005 210-306): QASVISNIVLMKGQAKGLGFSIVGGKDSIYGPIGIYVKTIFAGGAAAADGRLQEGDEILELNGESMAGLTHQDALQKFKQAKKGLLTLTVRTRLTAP
Chain of MAGI2_3, Q86UL8 (Q86UL8 600-682): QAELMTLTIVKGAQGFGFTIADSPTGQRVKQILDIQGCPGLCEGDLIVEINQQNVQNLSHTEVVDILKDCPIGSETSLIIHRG
Chain of LDB3, O75112 (O75112 1-94): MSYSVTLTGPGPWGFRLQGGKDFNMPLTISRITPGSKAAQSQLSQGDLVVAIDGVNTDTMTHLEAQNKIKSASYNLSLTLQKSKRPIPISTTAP
Chain of PTPN3, P26045 (P26045 505-587): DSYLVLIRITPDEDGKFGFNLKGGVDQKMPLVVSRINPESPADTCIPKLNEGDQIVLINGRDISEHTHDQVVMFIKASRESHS
Chain of SCRIB_3, Q14160 (Q14160 999-1103): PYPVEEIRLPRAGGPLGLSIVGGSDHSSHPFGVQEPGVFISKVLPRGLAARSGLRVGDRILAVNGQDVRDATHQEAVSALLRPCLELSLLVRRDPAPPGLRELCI
Chain of LNX1_1, Q8TBB1 (Q8TBB1 261-371): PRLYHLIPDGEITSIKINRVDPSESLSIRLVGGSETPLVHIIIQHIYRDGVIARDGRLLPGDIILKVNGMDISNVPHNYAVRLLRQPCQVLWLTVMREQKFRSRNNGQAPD
Chain of IL16_4, Q14005 (Q14005 1229-1329): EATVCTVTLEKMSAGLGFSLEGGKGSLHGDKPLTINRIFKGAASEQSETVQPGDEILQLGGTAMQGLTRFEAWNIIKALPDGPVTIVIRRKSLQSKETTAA

pKd [1] | pKd [2] | pKd [3] | pKd [4] | pKd [5] | pKd [6] | pKd [7] | pKd [8] | pKd [9] | pKd [10] | pKd [11] | pKd [12] | pKd [13] | pKd [14] | pKd [15] | pKd [16] | pKd [17] | pKd [18] | pKd [19] | pKd [20] | Binder | further results
3.92 | below the threshold | 5.75 | 4.31 | 3.48 | below the threshold | 3.95 | below the threshold | 3.69 | 3.72 | below the threshold | below the threshold | below the threshold | below the threshold | below the threshold | below the threshold | 3.82 | below the threshold | below the threshold | 4.08 | ATKDKKITTV [EXOC4, Q96A65] | pKd [21]: 3.59; pKd [22]: 3.57; pKd [23]: below the threshold; pKd [24]: below the threshold; pKd [25]: 3.85; pKd [26]: 3.84; pKd [27]: below the threshold; pKd [28]: 3.99
3.6 | below the threshold | 4.66 | 4.6 | 3.49 | 3.7 | 4.72 | below the threshold | below the threshold | 3.64 | below the threshold | below the threshold | below the threshold | 5.52 | below the threshold | below the threshold | 4.15 | below the threshold | below the threshold | 3.96 | FHSIKQSTAV [CRHR1, P34998] | pKd [21]: below the threshold; pKd [22]: 3.61; pKd [23]: below the threshold; pKd [24]: below the threshold; pKd [25]: 4.01; pKd [26]: 4.43; pKd [27]: below the threshold; pKd [28]: 3.88
below the threshold | below the threshold | below the threshold | 4.08 | below the threshold | below the threshold | 3.59 | below the threshold | below the threshold | below the threshold | below the threshold | below the threshold | below the threshold | below the threshold | below the threshold | below the threshold | below the threshold | below the threshold | below the threshold | below the threshold | GSQSQVETEA [FKBP4, Q02790] | pKd [21]: below the threshold; pKd [22]: below the threshold; pKd [23]: below the threshold; pKd [24]: below the threshold; pKd [25]: below the threshold; pKd [26]: 4.04; pKd [27]: below the threshold; pKd [28]: below the threshold
